Experimental data: US20170360931A1

Experiments:
Assay in all cases: cell-based or functional assay
[1] = target: HA of wild type A/Shanghai/1/2013 (H7N9) virus (influenza A virus A/Shanghai/1/2013 (H7N9))
[2] = target: HA of A/California/04/2009 (H1N1) virus (influenza A virus A/California/04/2009 (H1N1))
[3] = target: all H3N2 and H7 strains (plaque reduction assay)

B1: 042-100809-2F04 (antibody, V domains shown)
VH: EVQLVESGGGLVQPGGSLRLSCVASGFTFSTPWMTWIRQAPGKGLEWVAHIKQDGSETYYVDSVKGRFTISRDNAKNSLYLQMNSLKAEDTALYYCARMTRESSENYWGQGTLVTVSS
VL: DVVMTQSPLSLPVTLGQPASISCRSSQSLVYSDGDTFLEWFQQRPGQSPRRLIYKVSNRDSGVPDRFSGSGSGTDFTLKISRVEAEDVGLYYCMQHTHWPHTFGQGTKVEIK
[1]
  PRNT50 (plaque reduction assay): 27 µg/mL

B2: S6-B01 (antibody, V domains shown)
VH: QVQLVQSGAEVKKPGASVKVSCKASGYTFNSYGISWVRQAPGQGLEWMGWISAYTGDTKFAQNVQGRVTMTIDTSTSTAYMELRSLRSDDTAVYYCARHYLQGVVVVDPYSHAMDVWGQGTTVTVSS
VL: EIVLTQSPGTLSFFPGERATLSCRASQTINSRFLAWYQQKPGQAPRLLIYGASSRATGIPDRFSGRGSGTDFTLAISRLEPEDFAVYYCQLYGSSRTTFGQGTKVEIK
[2]
  PRNT50 (plaque reduction assay): > 120 µg/mL
[3]
  PRNT50 (plaque reduction assay): 3 to 6 µg/mL
